Data set [1] concerns the molecule itself. Description: cross-linking.
Data set [2] deals with the molecule itself. Description: cross-linking. This is another data set of the same source.
The data set “crystal structure” deals with the molecule itself. In words: crystal structure.

Broadly, the stoichiometry N is a count of units in the complex or per binding partner.

No end group written: not given here.

B1: mouse TRIM75 coiled-coil domain with the CCm9A mutation (domain or fragment, UniProt Q3UWZ0 168-222, looked up)
chain: VTLREQAEAAASQATSEAEKAMRAADQEARAAFSRAEDEEMRLEKRLLDNIAALE
Regarding B1, the “stoichiometry N” value in “cross-linking [1]” is 2.

B2: truncated mouse TRIM75 protein (136-467) containing the coiled coil and C-terminal domains, N-terminal FLAG tag (domain or fragment, UniProt Q3UWZ0 136-467, looked up)
chain: SLHRKHLQDYSKLLKWEVKEIQGLMSALNKRTVTLREQAEAQRSQLTSECEKLMRFLDQEERAAFSRLEDEEMRLEKRLLDNIAALEHHGSSLRDLLRHLMLTGELSEAKMLSTVKDFYLNCRRQLISPSIFPVQLRRVEYSFPLQYSALQKVIQHFTDNVTLDLKTAHPNLLISKDRTCVTFTKKRQRIPGSSSFTKSPVVLGIPHFNSGRHFWEVQVGKKPKWAIGICKADSSIGERQSPNPWGYWRIVWQGDSFNVSGADPDSRLKAARATSIGVFLDYELGEVSFYGMPEKCHLYTFRDTFSGPVCPYFYIGPQSEPLRLCSATDSEC
Regarding B2, in “cross-linking [2]”, the “stoichiometry N” value amounted to 4.

B3: full-length mouse TRIM75 with N-terminal FLAG tag (natural protein, UniProt Q3UWZ0 1-467, looked up)
chain: MAHVEVLARLQKETKCPICLDDLTDPVTVECGHNFCRSCIKDFWAGQQATSSCPVCRHQCQHRNLRSNAQLGNMIETAQLLQGMENKRHESSTSCERHNQALTLFCEDDLQLLCDQCVEPESHGRHQVLSITEAASLHRKHLQDYSKLLKWEVKEIQGLMSALNKRTVTLREQAEAQRSQLTSECEKLMRFLDQEERAAFSRLEDEEMRLEKRLLDNIAALEHHGSSLRDLLRHLMLTGELSEAKMLSTVKDFYLNCRRQLISPSIFPVQLRRVEYSFPLQYSALQKVIQHFTDNVTLDLKTAHPNLLISKDRTCVTFTKKRQRIPGSSSFTKSPVVLGIPHFNSGRHFWEVQVGKKPKWAIGICKADSSIGERQSPNPWGYWRIVWQGDSFNVSGADPDSRLKAARATSIGVFLDYELGEVSFYGMPEKCHLYTFRDTFSGPVCPYFYIGPQSEPLRLCSATDSEC
Take B3: in “cross-linking [2]”, the “stoichiometry N” value is 4.

B4: mouse TRIM75 coiled-coil domain (residues 168-222) (domain or fragment, UniProt Q3UWZ0 168-222, looked up)
chain: VTLREQAEAQRSQLTSECEKLMRFLDQEERAAFSRLEDEEMRLEKRLLDNIAALE
modifications: also: homodimer: interchain disulfide between C185 of two chains
Take B4: the “stoichiometry N” value in “crystal structure” came out at 4.

The values above are taken from PMC9471973 (Computational and Structural Biotechnology Journal, 2022).
